± gives the standard error. This sample holds only a part of the variants without activity. Bounds are passed on as bounds.

This is an account of results in the supplement of paper PMC7125110.

To fix the notation:
B1: glmS ribozyme (parent)
chain: AUAAAAGCGCCAGAACUACAGAAAUGUAGUUGACGAGGAGGAGGUUUAUCGAAUUUUCGGCGGAUGCCUCCAAA

Variants of B1 are the subject of the data set. The data set is described as follows: self-cleavage kobs at 10000 uM GlcN6P; higher = faster cleavage; RNA array. The note with it: with glucosamine-6-phosphate. The method in brief: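 Using a hybridised Cy3 probe at 37 °C, barcoded ribozyme variants transcribed in situ by E. coli RNA polymerase on sequenced MiSeq chips were monitored across tiles imaged over ~14 h. The flow contained glucosamine-6-phosphate from 40 μM to 10 mM in HEPES/KCl/Mg(OAc)2 buffer. Signals were normalised to baseline and to non-cleaving reference variants before per-tile medians were fit to one- or two-exponential decays to yield kobs. Weighted Michaelis–Menten fits across concentrations gave kcat and KM.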
Take AUAAAAGCGCCAUAACUACAGAAAUGUAGUUGACGAGGAGGAGUGUUAUCGAAUUUUAGGCGGAUGCCUCGAAA [G13U G44U U45G C58A C71G]: the “self-cleavage kobs at 10000 uM GlcN6P” value is less than 1e-05 s⁻¹. In the case of AUAAAAGCGCCAGACCUACAGAAAUGUAGUUGACGAGGAGUAGGUUUAUCGAAUUUUCGGCGGAUACCUCCAAA [A15C G41U G66A], the “self-cleavage kobs at 10000 uM GlcN6P” value is 0.000194 ± 4.9e-05 s⁻¹. AUAAAAGCGCCAGAACUACAGAAAUGUAGUUGACGAGGAGAAGGUUUAUCGAAUUUUCGGAGGAUGCGUCCAAA [G41A C61A C68G]: the “self-cleavage kobs at 10000 uM GlcN6P” value is less than 1e-05 s⁻¹. On to AUAAAAGCGCCAGAGCUACAGAAAUGUAGUUGACGAGGAGGAGUUUUAUCGAAUUUUUGGCGGAUGACUCCAAA [A15G G44U C58U C67A], for which the “self-cleavage kobs at 10000 uM GlcN6P” value stood at 2.9e-05 ± 1.2e-05 s⁻¹. Regarding AUAAACGCGCCAGAACUACAGAAAUGUAGUUGACGUGGAGGAGGUUUAUCGAAUUUUCGGCGGAUGCCACCAAA [A6C A36U U69A], the “self-cleavage kobs at 10000 uM GlcN6P” value was less than 1e-05 s⁻¹. Consider AUAAAUGCGCGAGAACUACAGAAAUGUAGUUGACGAGGAGCAGGUUUAUCGAAUUUUCGGCAGAUUCCUCCAAA [A6U C11G G41C G62A G66U], for which the “self-cleavage kobs at 10000 uM GlcN6P” value is less than 1e-05 s⁻¹. For the variant AUAAAAGAGCCAGAACUACAGAAAUGUAGUUGAUGAGGAGGAGGUUUAUCGAAUUUUCGGCGGUUGCUUCCAAA [C8A C34U A64U C68U], the “self-cleavage kobs at 10000 uM GlcN6P” value was less than 1e-05 s⁻¹. For AUAAAAGCGCGAGAACUACAGAAAUGUAGUUGACGCCGAGGAGGUGUAUCGAAUUUUCGACGGAUGCCUCCAAA [C11G A36C G37C U46G G60A] the value was less than 1e-05 s⁻¹; for AUAAAAGCGCCAGAACUACAGAAAUGUAGUUGCCGAGGGGGAGGUUUAUCGAAUUUUCGGCGGAUGCCGCCAAA [A33C A39G U69G], less than 1e-05 s⁻¹. Consider AUAAAAGCGCCAGAACUACAGAAAUGUAGUUGACGAGGAGGAGGUUUAUCGAGUUUUUGGCGGAUGCCUUCAAA [A53G C58U C70U], for which the “self-cleavage kobs at 10000 uM GlcN6P” value was 0.000123 ± 2.7e-05 s⁻¹. Consider AUAAAAGCGUCAGAUCUACAGAAAUGUAGUUGACGAGGAGGAGGAUUAUCGAAUUUUCGGCGGAUGCCUCCAAA [C10U A15U U45A], for which the “self-cleavage kobs at 10000 uM GlcN6P” value is less than 1e-05 s⁻¹. Turning to AUAAACGCACCAGAACUACAGAAAUGUAGUUGAAGAGGACGAAGUUUAUUGAAAUUUGGGCGGAUGCUUCCAAA [A6C G9A C34A G40C G43A C50U U54A C58G C68U], the “self-cleavage kobs at 10000 uM GlcN6P” value was less than 1e-05 s⁻¹.

Consider AUAAAAGCGCCAGAACUACAGAAAUGUAGUUGACGAGGAGGAGAUAUAUCGAAUUUUCGGCGGAUGCCUCCAAA [G44A U46A], for which the “self-cleavage kobs at 10000 uM GlcN6P” value stood at 0.000375 ± 6.2e-05 s⁻¹.

For the variant AUAAAAGCGCCGGAACUACAGAAAUGUAGGUGACGAGGAGGAGGUUUAUCGAAUUUUAGGCGGAUGCCUCCAAA [A12G U30G C58A], the “self-cleavage kobs at 10000 uM GlcN6P” value came out at 0.000483 ± 9.8e-05 s⁻¹. As for AUAAAAGCGCCAGCACUACAGAAAUGUAGUUGACGAGGAGGAGGUUUAUCGAAUUUACGGCGGAUGACUCCAAA [A14C U57A C67A], the “self-cleavage kobs at 10000 uM GlcN6P” value came to 3.08e-05 ± 1.4e-05 s⁻¹. Turning to AUAAAAGCGCCAGAACUACAGAAAUGUAGUUGACGAGGAGGAGGUGUAUCGAAUUUUCGGGGGAUGCCUCGAAA [U46G C61G C71G], the “self-cleavage kobs at 10000 uM GlcN6P” value was found to be 4.27e-05 ± 1.8e-05 s⁻¹. In the case of AUAAAGGCGCCAGAACUACAGAAAUGUAGUUGACGAGGAGGAGGUUUAUCGAAUUUUCCGCAGAUGCCUCCAAA [A6G G59C G62A], the “self-cleavage kobs at 10000 uM GlcN6P” value was less than 1e-05 s⁻¹.

For the variant AUAAAAGCGCCAGAACUACAGAAAUGUAGUUGACGAGGAGGAGGUUUAUCGAAUUUUCCGCGCAUGCCUACAAA [G59C G63C C70A], the “self-cleavage kobs at 10000 uM GlcN6P” value is less than 1e-05 s⁻¹. For the variant AUAAAAGCGCCAGAACUACAGAAAUGUAGUUGACGAGGAGGAGGUUUAUCGAAGUUUCGGAGGAUGCCUCCAAA [U54G C61A], the “self-cleavage kobs at 10000 uM GlcN6P” value is less than 1e-05 s⁻¹. Consider AUAAAAGCGCCAGAACUACAGAAAUGUAGUUGACGAGGAGGAGGUUUAACGAAUUUUCGGAGGAUGCCUCCAAA [U49A C61A], for which the “self-cleavage kobs at 10000 uM GlcN6P” value is less than 1e-05 s⁻¹. Regarding AUAAAAGCGCCCGAACUACAGAAAUGUAGUUGACGAGGAGGAGGUUUAUCGAAUUUUCGGCUGAUGCCUCUAAA [A12C G62U C71U], the “self-cleavage kobs at 10000 uM GlcN6P” value was less than 1e-05 s⁻¹.

Take AUAAAAACGCCAGAACUACAGAAAUGUAGUUGACUAGGAGGAGGUUUAUCGAAUUUACGGCGGAUGCCUCCAAA [G7A G35U U57A]: the “self-cleavage kobs at 10000 uM GlcN6P” value is less than 1e-05 s⁻¹.

With AUAAAAGCGCCAGAUCUACAGAAAUGUAGUUGACGAGGAGGAAGUUUAUCGAAUUUUCGGCGGUUGCGUCCAAA [A15U G43A A64U C68G], the “self-cleavage kobs at 10000 uM GlcN6P” value is less than 1e-05 s⁻¹. AUAAAAGCGCAAGAACUACAGAAAUGUAGUUGACGAGGAGGAGGUUUAUCGGAUUUUCGGCGGAUGCCUCCAAA [C11A A52G]: the “self-cleavage kobs at 10000 uM GlcN6P” value stood at 3.16e-05 ± 9.6e-06 s⁻¹. On to AUAAAAGCGCCGGAACUACAGAAAUGUAAUUGACGAGGAGGAGGUCUAUCGAAUUUUCGGCGGAUGCCUCCAAA [A12G G29A U46C], for which the “self-cleavage kobs at 10000 uM GlcN6P” value turned out to be 6.56e-05 ± 1.2e-05 s⁻¹. On to AUAAAAGCGCCAGAACUACAGAAAUGUAGUCGACGAGGAGGAGGUUUAUCGAAUUUCCGGCGGAUGCCUCCAAA [U31C U57C], for which the “self-cleavage kobs at 10000 uM GlcN6P” value came out at 5.52e-05 ± 1.3e-05 s⁻¹. For AUAAAAGCGCCAGAACUACAGAAAUGUAGUUUACGAGGAGGAGGUUUAUCGAAUUUACGGCGGAUGCCUCCAAA [G32U U57A] the value was 6.86e-05 ± 8.1e-06 s⁻¹. Regarding AUAAAAACGCCAGAACUACAGAAAUGUAGUUGACCAGGAGUAGGUUUAUCGAAUUUUCGGCGGAUGCCUCCAAA [G7A G35C G41U], the “self-cleavage kobs at 10000 uM GlcN6P” value is less than 1e-05 s⁻¹. As for AUAAAAGCGCCAGAACUACAGAAAUGUAGCUCACGAGGAAGAGGUUUAUCGAAUUUUCGGCGGAUGCCUCCAAA [U30C G32C G40A], the “self-cleavage kobs at 10000 uM GlcN6P” value came to 6.96e-05 ± 1.4e-05 s⁻¹.

As for AUAAAAGCGCCAGAACUACAGAAAUGUAGUUGACGAGGUGGAGGUUUAUCGAAUUUUCGGCGGAUUACUCCAAA [A39U G66U C67A], the “self-cleavage kobs at 10000 uM GlcN6P” value stood at 0.00316 ± 0.00061 s⁻¹. Turning to AUAAAAGCGCCAGAACUACAGAAAUGUAGUGGACGUGGAGGAGGUUUAUCGAAUUUUCGGCGGAUGAGUCCAAA [U31G A36U C67A C68G], the “self-cleavage kobs at 10000 uM GlcN6P” value stood at 6.42e-05 ± 1.5e-05 s⁻¹.

As for AUAAAAGCGCCAGAACUACAGAAAUGUAGUUGGCGGGGUGGAGGUUUAUCGAGUUUUCGGCGGAUGCCUCCAAA [A33G A36G A39U A53G], the “self-cleavage kobs at 10000 uM GlcN6P” value was less than 1e-05 s⁻¹.

AUAAAAGCGCCAGAACUACAGAAAUGUAGGUGACGAGGCGGAGGUUUAUCGAAUUAUCGGCGGAUGCCUGCAAA [U30G A39C U56A C70G]: the “self-cleavage kobs at 10000 uM GlcN6P” value is less than 1e-05 s⁻¹.

With AUAAAAGCGCCAGAACUACAGAAAUGUAGUAGACGAGGAGGACGUUUAUCGAAUUUUCGGCGGAUGCUUCCAAA [U31A G43C C68U], the “self-cleavage kobs at 10000 uM GlcN6P” value was 0.000192 ± 5.2e-05 s⁻¹. In the case of AUAAAAGCGCCAGAACUACAGAAAUGUAGAUGACGACGAGGAGGUUUAUUGAAUUUUCGGCGGAUGCCUCCAAA [U30A G37C C50U], the “self-cleavage kobs at 10000 uM GlcN6P” value is less than 1e-05 s⁻¹. Take AUAAAAGCACCAGAUCUACAGAAAUGUAGUUGACGAGGGGGAGGUUUAUCGUAUUUUCGUCGGAUGCCUCCAAA [G9A A15U A39G A52U G60U]: the “self-cleavage kobs at 10000 uM GlcN6P” value is less than 1e-05 s⁻¹.
